{"source": "paper PMC2716513", "key": {"[1]": {"molecular_target": "ADAMTS13 (wild-type recombinant ADAMTS13 with a carboxy-terminal V5 tag) (UniProt Q76LX8)"}, "[2]": {"molecular_target": "ADAMTS13 P475S mutant (UniProt Q76LX8)"}, "[3]": {"molecular_target": "ADAMTS13 (wild-type recombinant ADAMTS13 with a carboxy-terminal V5 tag) (UniProt Q76LX8)", "remark": "listed apart in the source"}}, "data": [{"substance": "von Willebrand Factor (VWF) (from UniProt P04275 764-2813) (natural protein)", "values": [{"measurement": "reactivity of the mAb Wh2-11-1 to intracellular ADAMTS13 (flow cytometry, permeabilized HEK293 cells) after incubation with VWF at 37°C, fold increase", "setting": "[1]", "value": "> 10", "unit": "fold"}, {"measurement": "fluorescence intensity of the mAb Wh-2-11-1 on the P475S mutant ADAMTS13 (flow cytometry) on addition of VWF, fold increase (data not given)", "setting": "[2]", "value": 1.9, "unit": "fold"}, {"measurement": "fluorescence intensity of the mAb Wh-2-11-1 on wild-type ADAMTS13 (flow cytometry) on addition of VWF, fold increase (data not given)", "setting": "[3]", "value": 3.5, "unit": "fold"}]}]}
